Positions count from the first letter of the chain named.
B1: LD3_v3 (designed binder)
chain: QRWELALGRFLEYLSWVSTLSEQVQEELLSSQVTQELRALMDETMKELKAYKSELEEQLTPVAEETRARLSKELQAAQARLGADMEDVRGRLVQYRGEVQAMLGQSTEELRVRLASHLIALALRLIGAAFDLQKRLAVY
B2: LD3_v1 (designed binder)
chain: B1 chain with E12A, A128D
B3: LD3_v2 (designed binder)
chain: B1 chain with R124A, A128D

molecular target: Bcl2 (UniProt P10415 1-239); assay: SPR
Sequence (P10415 whole entry): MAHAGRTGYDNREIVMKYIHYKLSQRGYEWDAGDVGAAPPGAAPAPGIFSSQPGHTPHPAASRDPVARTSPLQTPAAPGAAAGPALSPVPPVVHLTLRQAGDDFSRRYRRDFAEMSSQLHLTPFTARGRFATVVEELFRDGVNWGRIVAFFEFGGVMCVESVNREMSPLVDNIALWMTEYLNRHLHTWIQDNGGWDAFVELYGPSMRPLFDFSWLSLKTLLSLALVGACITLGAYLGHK

Row | Binder | Kd
1 | B1 | 147 nM
2 | B2 | 16.8 nM
3 | B3 | 64.1 nM

— publication PMC8486872 (2021)
